Common to all, as to test: EMSA
Background: Mobility shift assays separate free from complexed probe on a gel.

The target of one data set is T1, Pif1 (Saccharomyces cerevisiae, UniProt P07271 1-859).
T1 sequence: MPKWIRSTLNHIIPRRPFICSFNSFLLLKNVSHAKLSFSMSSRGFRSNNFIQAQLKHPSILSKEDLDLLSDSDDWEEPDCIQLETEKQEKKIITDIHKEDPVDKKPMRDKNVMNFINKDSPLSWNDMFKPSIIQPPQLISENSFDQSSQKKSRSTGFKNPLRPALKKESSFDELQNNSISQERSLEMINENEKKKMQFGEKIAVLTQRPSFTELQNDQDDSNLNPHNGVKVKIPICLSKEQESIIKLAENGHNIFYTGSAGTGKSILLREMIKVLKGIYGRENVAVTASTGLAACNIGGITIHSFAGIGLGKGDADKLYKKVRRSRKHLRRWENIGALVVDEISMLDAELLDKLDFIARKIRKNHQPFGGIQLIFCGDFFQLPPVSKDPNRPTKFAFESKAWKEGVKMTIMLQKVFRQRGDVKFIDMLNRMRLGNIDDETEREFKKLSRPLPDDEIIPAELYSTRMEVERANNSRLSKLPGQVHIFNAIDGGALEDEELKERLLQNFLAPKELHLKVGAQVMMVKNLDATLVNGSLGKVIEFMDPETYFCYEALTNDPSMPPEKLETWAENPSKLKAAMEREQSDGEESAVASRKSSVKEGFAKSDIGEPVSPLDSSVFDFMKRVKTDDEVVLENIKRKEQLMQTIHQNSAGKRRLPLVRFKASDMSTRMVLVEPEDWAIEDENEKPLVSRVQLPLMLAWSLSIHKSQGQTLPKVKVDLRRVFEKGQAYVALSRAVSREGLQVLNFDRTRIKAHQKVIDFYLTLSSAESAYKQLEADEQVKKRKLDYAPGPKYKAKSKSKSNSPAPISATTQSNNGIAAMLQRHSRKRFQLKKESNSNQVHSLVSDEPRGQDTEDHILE

The next data set deals with T2, Pif1-K264A (Saccharomyces cerevisiae, UniProt P07271 1-859, K264A).
T2 sequence: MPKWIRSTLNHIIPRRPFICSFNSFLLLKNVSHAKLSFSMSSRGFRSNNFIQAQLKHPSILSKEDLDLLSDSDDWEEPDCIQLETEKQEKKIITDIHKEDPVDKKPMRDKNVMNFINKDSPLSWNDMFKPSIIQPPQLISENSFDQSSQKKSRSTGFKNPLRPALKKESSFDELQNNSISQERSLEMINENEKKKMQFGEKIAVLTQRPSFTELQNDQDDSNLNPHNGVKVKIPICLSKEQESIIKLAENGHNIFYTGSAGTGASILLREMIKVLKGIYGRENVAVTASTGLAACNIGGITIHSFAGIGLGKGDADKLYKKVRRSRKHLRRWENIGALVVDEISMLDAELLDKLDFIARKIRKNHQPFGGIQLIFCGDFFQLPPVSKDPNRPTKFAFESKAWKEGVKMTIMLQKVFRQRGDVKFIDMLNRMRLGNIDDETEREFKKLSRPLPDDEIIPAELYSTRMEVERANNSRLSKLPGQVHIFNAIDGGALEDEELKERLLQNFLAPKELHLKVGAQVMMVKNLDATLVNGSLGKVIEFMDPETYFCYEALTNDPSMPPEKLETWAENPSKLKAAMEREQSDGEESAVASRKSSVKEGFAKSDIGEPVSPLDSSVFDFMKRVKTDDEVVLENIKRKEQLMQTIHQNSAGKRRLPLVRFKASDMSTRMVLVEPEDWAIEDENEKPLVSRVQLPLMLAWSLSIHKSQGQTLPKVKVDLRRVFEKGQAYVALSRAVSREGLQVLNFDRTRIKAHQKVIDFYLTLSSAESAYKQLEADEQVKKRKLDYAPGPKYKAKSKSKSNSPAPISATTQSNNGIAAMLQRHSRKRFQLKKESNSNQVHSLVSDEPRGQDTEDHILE

In the next data set the target is T3, Hrq1 (Saccharomyces cerevisiae, UniProt Q05549 1-1077).
T3 sequence: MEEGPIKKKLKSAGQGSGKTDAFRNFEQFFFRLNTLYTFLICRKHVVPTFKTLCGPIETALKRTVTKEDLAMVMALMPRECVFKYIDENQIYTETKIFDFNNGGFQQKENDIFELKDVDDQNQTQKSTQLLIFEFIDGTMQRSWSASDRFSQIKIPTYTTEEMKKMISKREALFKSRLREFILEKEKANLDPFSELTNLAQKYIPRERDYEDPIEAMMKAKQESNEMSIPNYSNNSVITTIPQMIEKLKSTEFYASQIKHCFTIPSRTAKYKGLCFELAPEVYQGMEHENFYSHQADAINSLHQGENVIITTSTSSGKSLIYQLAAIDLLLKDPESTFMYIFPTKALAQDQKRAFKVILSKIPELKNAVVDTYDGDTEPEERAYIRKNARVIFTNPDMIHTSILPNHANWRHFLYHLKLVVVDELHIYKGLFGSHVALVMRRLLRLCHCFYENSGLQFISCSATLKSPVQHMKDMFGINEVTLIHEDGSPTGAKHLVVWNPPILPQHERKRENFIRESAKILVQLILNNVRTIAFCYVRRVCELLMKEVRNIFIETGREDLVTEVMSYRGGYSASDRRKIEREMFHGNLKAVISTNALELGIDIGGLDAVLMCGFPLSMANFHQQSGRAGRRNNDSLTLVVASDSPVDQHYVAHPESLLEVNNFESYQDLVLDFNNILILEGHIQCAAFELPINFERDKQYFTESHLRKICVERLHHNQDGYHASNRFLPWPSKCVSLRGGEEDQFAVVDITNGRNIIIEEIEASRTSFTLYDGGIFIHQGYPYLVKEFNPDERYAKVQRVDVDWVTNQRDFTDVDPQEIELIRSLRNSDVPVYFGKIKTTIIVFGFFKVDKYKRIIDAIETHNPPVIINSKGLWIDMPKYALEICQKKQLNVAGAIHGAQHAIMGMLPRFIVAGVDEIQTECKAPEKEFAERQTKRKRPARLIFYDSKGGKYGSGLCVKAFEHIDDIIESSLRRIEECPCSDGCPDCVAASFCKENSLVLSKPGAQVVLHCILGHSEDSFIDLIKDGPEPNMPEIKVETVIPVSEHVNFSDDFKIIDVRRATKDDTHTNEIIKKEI

For another data set, the target named is Hrq1;Pif1 (Saccharomyces cerevisiae;Saccharomyces …, UniProt Q05549;P07271 1-1077;1-859, |).
A further data set concerns the target T4, Hrq1-K318A (Saccharomyces cerevisiae, UniProt Q05549 1-1077, K318A).
T4 sequence: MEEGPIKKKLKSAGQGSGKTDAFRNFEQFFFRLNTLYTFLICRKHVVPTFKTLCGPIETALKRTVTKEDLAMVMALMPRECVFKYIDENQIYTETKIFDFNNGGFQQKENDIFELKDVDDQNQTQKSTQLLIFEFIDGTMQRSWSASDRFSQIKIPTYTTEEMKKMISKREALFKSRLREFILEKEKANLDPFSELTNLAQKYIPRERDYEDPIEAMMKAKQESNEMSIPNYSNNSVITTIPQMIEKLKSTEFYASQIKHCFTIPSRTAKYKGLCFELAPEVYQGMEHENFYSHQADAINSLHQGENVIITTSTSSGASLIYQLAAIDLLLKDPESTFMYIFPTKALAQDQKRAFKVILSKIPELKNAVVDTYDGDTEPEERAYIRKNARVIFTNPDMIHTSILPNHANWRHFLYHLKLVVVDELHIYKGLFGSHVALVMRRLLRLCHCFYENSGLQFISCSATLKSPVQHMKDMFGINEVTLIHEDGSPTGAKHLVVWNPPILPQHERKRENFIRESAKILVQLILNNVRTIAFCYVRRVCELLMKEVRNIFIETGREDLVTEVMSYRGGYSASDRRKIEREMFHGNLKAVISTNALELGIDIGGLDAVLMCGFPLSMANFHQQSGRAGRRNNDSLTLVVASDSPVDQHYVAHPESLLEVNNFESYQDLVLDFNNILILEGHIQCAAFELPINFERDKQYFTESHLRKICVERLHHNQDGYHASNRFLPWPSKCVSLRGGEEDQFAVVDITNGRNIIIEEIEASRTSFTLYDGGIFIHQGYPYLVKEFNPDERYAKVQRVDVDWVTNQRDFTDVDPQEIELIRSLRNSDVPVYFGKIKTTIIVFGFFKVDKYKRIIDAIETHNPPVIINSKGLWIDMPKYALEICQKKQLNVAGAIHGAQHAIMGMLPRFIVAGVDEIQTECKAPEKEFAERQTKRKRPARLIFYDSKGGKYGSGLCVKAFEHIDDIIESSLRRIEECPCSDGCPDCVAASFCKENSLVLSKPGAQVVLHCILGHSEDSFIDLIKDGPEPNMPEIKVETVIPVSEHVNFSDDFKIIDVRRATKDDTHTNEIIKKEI

What is called Kd is the constant that tells how readily two partners part at equilibrium.

B1: Tel15 (ssDNA)
DNA: TGTGGTGTGTGTGGG
On to B1, for which the binding result with Pif1 and with Pif1-K264A was “binds” throughout.

B2: MB463 poly(dT) 25 nt (ssDNA)
DNA: TTTTTTTTTTTTTTTTTTTTTTTTT
Consider B2, for which the equilibrium dissociation constant (Kd) with Hrq1 was roughly 0.035 µM.

B3: MB1429 poly(dT) 25 nt with 3' inverted dT (ssDNA)
DNA: TTTTTTTTTTTTTTTTTTTTTTTTT
modifications: 3'-terminal T25 is inverted dT (3'-3' linkage, two 5' ends, no free 3' end)
As to B3, the dissociation constant Kd with Hrq1 is roughly 0.035 µM.

B4: Tel50 (ssDNA)
DNA: GTGTGGGTGTGGTGTGGGTGTGGTGTGGGTGTGTGGTGTGGTGTGTGTGG
With B4, the binding result in the data set with Hrq1;Pif1 is “binds”.

B5: Tel30 (ssDNA)
DNA: CGCCATGCTGATCCGTGTGGTGTGTGTGGG
Turning to B5, the dissociation constant (Kd) with Hrq1 was found to be 0.0161 µM; with Pif1, 0.0335 µM; in the data set with Pif1-K264A, 0.0412 µM; with Hrq1-K318A, 0.105 µM.
